This passage reports Kd, koff and kon results from patent US20170015737A1 (published 2017).

For experiment [1], the target named is recombinant human TTR F87M/L110M (human, UniProt P02766 21-147). The experiment is described as follows: SPR, mAb captured on anti-mouse IgG chip, TTR F87M/L110M as analyte.
For experiment [2], the target named is T1, pH4.0-treated TTR (human, UniProt P02766 21-147). The experiment is described as follows: ELISA, pH4-TTR captured on anti-His coated plate. Background: An ELISA detects its analyte on a solid surface through an enzyme-linked reagent.
The target in experiment [3] is T1, pH4.0-treated TTR. The experiment is described as follows: sandwich ELISA (pH4-TTR).
The target in experiment [4] is T1, pH4.0-treated TTR. The experiment is described as follows: sandwich ELISA on pH4-TTR (the table prints 14.6 for 6C1).

B1: 6C1 (antibody, V domains shown)
VH: EVQLVESGGGLVQPGGSLKLSCAASGFTFSNYYMSWVRQTPEKRLEWVAYISIDGNNIYHPDSVKGRFTISRDNAKNTLYLQMSSLKSEDTAMYYCARDSDYGYFDVWGTGTTVTVSS
VL: DVLMTQTPLSLPVSLGDQASISCRSSQSIVHSNGNTYLEWYLQKRGQSPKLLIYKVSKRFSGVPDRFSGSGSGTDFILKISRVEAEDLGVYYCFQGSHVPLTFGGGTKLELK
In general, Kd refers to the constant that tells how readily two partners part at equilibrium. One may read the koff as a measure of how fast the partners let go of each other. Usually kon stands for a measure of how fast the partners come together. Regarding B1, the Kd stood at 9.01 nM in experiment [1], 16 nM in the experiment with pH4.0-treated TTR [2], 14.6 nM with pH4.0-treated TTR [3] and 14.5 nM with pH4.0-treated TTR [4]. In experiment [1], the off-rate (koff) is 0.000415 s⁻¹. Also, in experiment [1], the kon amounted to 46100 M⁻¹ s⁻¹.
